Laboratory results as given in patent US20210230599, “STEM-LOOP COMPOSITIONS AND METHODS FOR INHIBITING INTERLEUKIN-8” (VITRISA THERAPEUTICS, INC., published 2021).

How the values were obtained:
[1] = target: T1, Interleukin-8 (IL8, CXCL8), C-terminal His-tagged (Homo sapiens, UniProt P10145 SEQ:1-72); assay: competition; competition TR-FRET; conditions: tags: C-terminal His (Sino Biological); stem-loop
[2] = target: T1, Interleukin-8 (IL8, CXCL8), C-terminal …; assay: competition; competition TR-FRET; U20A; conditions: tags: C-terminal 6xHis (Sino Biological)
Method: (§1) To better understand the sequence requirements and to confirm the stem structures of members of the Aptamer 3 family as determined from sequence covariation analysis from both the primary and secondary (degenerate) selections, a series of variants which included mutations and deletions to the predicted stems were synthesized and screened (Table 24). Activity of each of these variants were tested using a time resolved competition TR-FRET assay in which the labeled parent Aptamer 3 was competed with increasing concentrations of unlabeled variants for binding to IL8 (FIG. 14). Briefly, 2-fold dilutions of thermally equilibrated aptamers were made in TR-FRET Buffer (50 mM MOPS, pH 7.4, 125 mM NaCl, 5 mM KCl, 50 μM CHAPS, 0.1 mg/mL BSA, 1 mM CaCl₂, and 1 mM MgCl₂). 5 μL of aptamer or control solution was added to 5 μl mix of 10 nM C-terminal His-tagged-IL8, 60 nM ALEXA FLUOR® 647-labeled Aptamer, and 5 nM anti-His-Eu (Perkin Elmer) in a black wall low volume 384 well plate (Greiner). For control, 5 μl of 1000-fold excess of unlabeled parent aptamer or 5 μl TR-FRET buffer alone was added to the mix of ALEXA FLUOR® 647-labeled aptamer, His-IL8, and anti-His-Eu. The plate was covered with a plate seal and subsequently incubated in the dark for 1 hour at room temperature. The plate was read on a Biotek CYTATION™ 5 plate reader. […]

[3] = target: T1, Interleukin-8 (IL8, CXCL8), C-terminal …; assay: TR-FRET; bead flow 10 nM; conditions: tags: C-terminal 6xHis (Sino Biological); label: Alexa Fluor 647
Method: (§2) Aptamers were synthesized and labeled with ALEXA FLUOR® 647, and binding to IL8 was quantified by Time-Resolved Fluorescence Resonance Energy Transfer (TR-FRET). Briefly, 2-fold dilutions of thermally equilibrated aptamers were made in TR-FRET Buffer (50 mM MOPS, pH 7.4, 125 mM NaCl, 5 mM KCl, 50 μM CHAPS, 0.1 mg/mL BSA, 1 mM CaCl₂ and 1 mM MgCl₂). […] of aptamer or control solution was added to 10 μL of 15 nM C-His-tagged-IL8 (Sino Biological) in a black wall half-area plate (Corning). In the same plate, 10 μl of aptamer solution was added to 10 μl of TR-FRET buffer alone to use for background subtraction. 10 μl of 15 nM anti-His-Eu (Perkin Elmer) was added to each well, the plate was covered with a plate seal and subsequently incubated in the dark for 1 hour at room temperature. The plate was read on a Biotek CYTATION™ 5 plate reader. Samples were excited at 330 nm and fluorescent values were collected at 665 nm. […] Apparent Kd values obtained for the fits are calculated as the concentration of half-maximal binding and shown in Table 10, and fit curves as FIG. 6. […] It is also possible that differences may arise due to TR-FRET being a homogenous solution binding assay, while bead binding has immobilized ligand and is non-homogenous, so bound aptamers may dissociate during analysis resulting in higher calculated Kd values.

[4] = target: T1, Interleukin-8 (IL8, CXCL8), C-terminal …; assay: TR-FRET; bead flow 11 nM; conditions: tags: C-terminal 6xHis (Sino Biological); label: Alexa Fluor 647
Method: as §2

[5] = target: T1, Interleukin-8 (IL8, CXCL8), C-terminal …; assay: cell_activity; neutrophil migration, 3 nM IL8, protein limited; conditions: tags: C-terminal His (Sino Biological); stem-loop
Method: (§3) Freshly isolated primary human neutrophil migration stimulated by IL8 was measured using a transwell assay. Neutrophils were isolated from fresh whole human blood using Polymorphprep™ (AXIS Shield) and then were re-suspended in assay buffer (RPMI+0.1% Human Serum Albumin) at 10\hat{ }6 cells/mL. 5 μm Transwell inserts (Corning) were activated with […] in the plate and 100 µL of assay buffer in the transwell at 37° C. 3 nM IL8 and aptamers or controls were incubated for 1 hour, then 200 µL of the aptamer/IL8 mix was added to each well and 100 μL of neutrophils was added to the transwell. Aptamer inhibition was tested at two concentrations: 10 nM and 100 nM. After 45 minutes at 37° C., 100 μL from each well was transferred to a white 96-well plate with 50 μL of lysis buffer. The number of cells that migrated from the transwell to the well was quantified by ATPLITE® Luminescence Assay System (Perkin Elmer). In Table 13, values are normalized to 3 nM IL8 treatment and average between replicates with standard deviation. 3 nM IL8 activity inhibited by at least 50% at 10 nM aptamer concentration is consistent with aptamers having IC₅₀ values of 10 nM or better, as observed for Aptamer 3 and Aptamer 8.
The neutrophil migration assays described in Examples 6 and 18 were used to confirm the activity of Aptamers 8, 212, and 248. Assays were performed as described in those examples.

[6] = target: T1, Interleukin-8 (IL8, CXCL8), C-terminal …; assay: TR-FRET; bead flow 19 nM; conditions: tags: C-terminal 6xHis (Sino Biological); label: Alexa Fluor 647
Method: as §2

[7] = target: T1, Interleukin-8 (IL8, CXCL8), C-terminal …; assay: competition; competition TR-FRET; S2 shortened; conditions: tags: C-terminal 6xHis (Sino Biological)
Method: as §1

[8] = target: T1, Interleukin-8 (IL8, CXCL8), C-terminal …; assay: competition; competition TR-FRET; U20C; conditions: tags: C-terminal 6xHis (Sino Biological)
[9] = target: T1, Interleukin-8 (IL8, CXCL8), C-terminal …; assay: TR-FRET; bead flow 20 nM; conditions: tags: C-terminal 6xHis (Sino Biological); label: Alexa Fluor 647
Method: as §2

[10] = target: T1, Interleukin-8 (IL8, CXCL8), C-terminal …; assay: TR-FRET; bead flow 7 nM; conditions: tags: C-terminal 6xHis (Sino Biological); label: Alexa Fluor 647
Method: as §2

[11] = target: T1, Interleukin-8 (IL8, CXCL8), C-terminal …; assay: TR-FRET; bead flow 21 nM; conditions: tags: C-terminal 6xHis (Sino Biological); label: Alexa Fluor 647
Method: as §2

[12] = target: T1, Interleukin-8 (IL8, CXCL8), C-terminal …; assay: inhibition; inhibition of IL8 binding to CXCR1 cells, protein limited; neutrophil migration 3 nM; conditions: tags: C-terminal His (Sino Biological); stem-loop
Method: CXCR1 overexpressing cells were used to confirm that aptamers could block IL8 binding to its cognate receptor, CXCR1, in a functional setting. Briefly, CXCR1-overexpressing cells were plated in a 96 well plate and seeded overnight. Serially diluted aptamers and 5 nM IL8 were mixed in cell culture media and applied to cells for 2 hours at 37° C. Media was aspirated, and cells were washed 3× with PBS for 5 minutes. Cells were lysed in Ultra HiBlock Buffer (Perkin Elmer) with gentle agitation. IL8 levels were determined using Ultra TR-FRET (Perkin Elmer).

[13] = target: T1, Interleukin-8 (IL8, CXCL8), C-terminal …; assay: cell_activity; neutrophil migration, 3 nM IL8, protein limited; conditions: tags: C-terminal His (Sino Biological); stem-loop; remark: listed apart in the source
Method: as §3
The neutrophil migration assay described in Example 6 was used to further characterize optimized variants of Aptamer 3. […]

[14] = target: T1, Interleukin-8 (IL8, CXCL8), C-terminal …; assay: competition; competition TR-FRET; conditions: tags: C-terminal 6xHis (Sino Biological)
Method: as §1

[15] = target: T1, Interleukin-8 (IL8, CXCL8), C-terminal …; assay: TR-FRET; bead flow 16 nM; conditions: tags: C-terminal 6xHis (Sino Biological); label: Alexa Fluor 647; stem-loop (Aptamer 3 family)
Method: as §2

B1: Aptamer 272 (ssRNA)
RNA: GCGACGGUAGAUUAUGGGCAGUGUGACCGCGC
modifications: 2'-F G except 2'-OMe G at X (XCX-A-CXXU-AX-AU-UAUGGGCAXU-GU-X-ACCX-CXC); 2'-OMe A,C,U; 5' C6NH2; 3' idT
binding signal [1]: > 10 fold worse than Aptamer 147

B2: Aptamer 278 (ssRNA)
RNA: GCGACGGUAGAUUUCGGGUAGUGUGACCGCGC
modifications: 2'-F G except 2'-OMe G at X (XCX-A-CXXU-AX-AU-UUCGGGUAXU-GU-X-ACCX-CXC); 2'-OMe A,C,U; 5' C6NH2; 3' idT
binding signal [1]: > 10 fold worse than Aptamer 147

CGGUGGGAAAUGUGAGAAGGGUUGCCG (ssRNA, 2'-F G, 2'-OMe A/C/U, 5' C6NH2, 3' idT) [Aptamer 59]
binding result [2]: binds

UUAAGCGCUGAGACGAGAGAUUAAUGCCGCUUGCCU (ssRNA, 2'-F G, 2'-OMe A/C/U, 5' C6NH2, 3' idT) [Aptamer 21]
Kd [3]: 7 nM

UAGCGGCCGAAGUUAGCGUACGUUUGCCGGGUACGU (ssRNA, 2'-F G, 2'-OMe A/C/U, 5' C6NH2, 3' idT) [Aptamer 2]
Kd [4]: 9 nM

B3: Aptamer 248 (ssRNA)
RNA: GCGGUGGGAAAUGUGAGAUGGGUUGCCGC
modifications: 2'-F G except 2'-OMe G at X (XCXXU-GGGA-AAUGU-GAGAU-GGGUU-XCCXC); 2'-OMe A,C,U; 5' C6NH2; 3' idT
IC50 [5]: 2 nM

UUGCCCUUUGAUCGUACCGAGGCGGGGAAGUACGAU (ssRNA, 2'-F G, 2'-OMe A/C/U, 5' C6NH2, 3' idT) [Aptamer 24]
Kd [6]: 9 nM

GCGACGUAGAUUACGGGUAGAGUGACGCGC (ssRNA, 2'-F G, 2'-OMe A/C/U, 5' C6NH2, 3' idT) [Aptamer 44]
binding signal [7]: > 10 fold worse than Aptamer 3

CGGUGGGAAAUGUGAGACGGGUUGCCG (ssRNA, 2'-F G, 2'-OMe A/C/U, 5' C6NH2, 3' idT) [Aptamer 54]
binding result [8]: binds

UCGUGAAGGGCGAUUCUGGUGCGUGUUCCCUCGCGU (ssRNA, 2'-F G, 2'-OMe A/C/U, 5' C6NH2, 3' idT) [Aptamer 5]
Kd [9]: 10 nM

UCUGAAUCGGCUGAAACGGGAGCAUUAAUGUCCGGU (ssRNA, 2'-F G, 2'-OMe A/C/U, 5' C6NH2, 3' idT) [Aptamer 22]
Kd [10]: 15 nM

UACGGUGGGAAAUGUGAGAUGGGUUGCCGUAUUUU (ssRNA, 2'-F G; 2'-OMe A,C,U; 5' C6NH2; 3' idT) [Aptamer 8]
IC50 [5]: 2 nM

UCGCUUGUACCUCUGAGAUGUGAGACUAAUGUAGGU (ssRNA, 2'-F G, 2'-OMe A/C/U, 5' C6NH2, 3' idT) [Aptamer 13]
Kd [11]: 7 nM

GCGACGCAGAUUACGGGUAGAGUGGCGCGC (ssRNA, 2'-F G, 2'-OMe A/C/U, 5' C6NH2, 3' idT) [Aptamer 45]
binding signal [7]: > 10 fold worse than Aptamer 3

UGAUGACGGUAGAUUAUGGGCAGUGUGACCGCAUCU (ssRNA, 2'-F G; 2'-OMe A,C,U; 5' C6NH2; 3' idT) [Aptamer 99]
IC50 [12]: 4 nM

UGAUGACGGUAGAUUUCGGGUAGUGUGACCGCAUCU (ssRNA, 2'-F G; 2'-OMe A,C,U; 5' C6NH2; 3' idT) [Aptamer 94]
IC50 [13]: 3 nM

GGCGACGGUAGAUUUUGGGUAGUGUGACCGCGCC (ssRNA, 2'-F G, 2'-OMe A/C/U, 5' C6NH2, 3' idT) [Aptamer 193]
binding result [14]: binds

B4: Aptamer 269 (ssRNA)
RNA: GGCGACGGUAGAUUAUGGGCAGUGUGACCGCGCC
modifications: 2'-F G except 2'-OMe G at X (XXCX-A-CXXU-AX-AU-UAUGGGCAGU-GU-G-ACCX-CXCC); 2'-OMe A,C,U; 5' C6NH2; 3' idT
IC50 [12]: 3 nM

GGCGACGGUAGAUUUCGGGUAGUGUGACCGCGCC (ssRNA, 2'-F G; 2'-OMe A,C,U; 5' C6NH2; 3' idT) [Aptamer 143]
IC50 [13]: 2 nM

GGCGACGGUAGAUUUUGGGCAGUGUGACCGCGCC (ssRNA, 2'-F G, 2'-OMe A/C/U, 5' C6NH2, 3' idT) [Aptamer 197]
binding result [14]: binds

UUGGCCACAGUAGAUUUCGGUGCGUGUGACUGGGCU (ssRNA, 2'-F G, 2'-OMe A/C/U, 5' C6NH2, 3' idT) [Aptamer 12]
Kd [15]: 12 nM
